Our source for the Kd values is publication PMC9340540 (2022).

For the experiment, the target named is T1, CHN-1 (C. elegans).
T1 chain: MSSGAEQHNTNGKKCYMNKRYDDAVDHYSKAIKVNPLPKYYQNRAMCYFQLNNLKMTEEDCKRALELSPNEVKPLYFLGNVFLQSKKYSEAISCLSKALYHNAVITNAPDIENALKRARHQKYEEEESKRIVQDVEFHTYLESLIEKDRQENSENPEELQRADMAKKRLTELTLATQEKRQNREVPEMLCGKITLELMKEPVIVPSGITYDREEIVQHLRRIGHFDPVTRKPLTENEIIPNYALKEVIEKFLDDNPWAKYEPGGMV
Nature of the experiment: ELISA. (In general: ELISA stands for enzyme-linked immunosorbent assay.)

B1: UFD-2 (enzyme)
chain: MIEDEKAGLQPMDISDASVFFFQADVESKDFLTSLFDCEGKSDDRMLRYADAIIDVQNLNFDVSPQCLQSNIAEIITKFVLLSQDGSRRGLSRSFNFIDPDIIAGCREEDAIEFLLINFVRCHHELGKSGTSNCYKKTLESTRKAVFSVFVMIQRGYLESQLRSQHASLVFTKRLLEDTVSNVFLRTLVEYLASTDECDEDAITETFNPIFGILRSGIICQRFEDNKDEIVRQILRVMNLLLSIRLPSNGPRPLSNLLVNREDFLPTPSEKIQGREFGLMSFLGPFFSYGLESSARRPNHRVFVDCEEDARKYDGSVNTEQKLYFQRMDPIRTMLHQLMLPLASDQGSRNKTLRWIATIISTNDIRTRSHYDPSDVLCDHYMTNFLSVMYMFSEKIDLSKIIVDYPFLPSSLINISKETRLKMDESGAVAFASQFADRPDEYHFSTVCFFLTIAAQRLVIPPLMNQISEYSRHLKELKHKINALKEKLNTVSGFERAEVEKKLNYETEHWKLMSRHLLCVKTQAQDPALMASSMDFVDKQMKFILNLLCDNLDLLGDDSQLPTEVSQMFCALPEYFLEDALDFYIFAISNGMKLLMERNADWISRLTVLFTQYHYIKSPFLVSKLVRVLSSIQPPLWFNVVRLRMAQENLLMCMIKFYSDFEDNGDFYEKFNVRGNIQYMLEKMEEDMFYKGKFMDMARECGAEFIRFVNMVINDATWCIDESLSGLKSIHDVEKKMANKVEWDNTDQEIRNQDLGVYEEAKRKVKGWLGTAKSNLKLLLSITVNSPEPFRTPVLGERLAAMLNHNLSQLIGSKASELKVKDPRSYGWEPREFVSLLISIYLKLNMPAFVKYIAYDERTYSPEFFHNAIECMRKNSIVGFSQLESFEHLAEDVKKEYEAKAELEEEYDDVPEEFKDPIMDAIMVDPVKLPSGHVMDRAVIERHLLSTPNNPFNRAPLSHNELSPDSELKAKIQEWICQKRNSKK
In general, Kd refers to the concentration at which binding is half-saturated. Higher therefore signals weaker binding. As for B1, the affinity, expressed as Kd, was 37.8 nM. This lies in the double-digit nanomolar range.

B2: HSP-1::6xHis (natural protein)
chain: not shown
For B2, the affinity, expressed as Kd, was 12.2 nM. This Kd is about 3.1-fold lower than that of the molecule before.
